Measured values reported in US20240101708A1 (Genentech, published 2024).

Target: T1, recombinant human ZNRF3 extracellular domain (human, UniProt Q9ULT6 56-219)
T1 construct: extracellular domain; also called huZNRF3; human ZNRF3 ECD
T1 sequence (looked up): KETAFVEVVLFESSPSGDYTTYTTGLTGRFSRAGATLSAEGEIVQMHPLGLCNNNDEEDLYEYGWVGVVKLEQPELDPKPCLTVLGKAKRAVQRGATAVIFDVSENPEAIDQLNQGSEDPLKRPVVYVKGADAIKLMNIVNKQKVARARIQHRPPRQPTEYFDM
Assay: SPR Biacore 8K; antibody captured on Protein A; ZNRF3 ECD analyte; 25 C
Description: Antibodies were screened for binding to recombinant human RNF43 and ZNRF3 ECDs using a Biacore® 8 k instrument (GE Life Sciences). Briefly, antibodies diluted to 1 μg/ml in 1×HBSP buffer (Cytiva, BR100368) were captured on a Sensor Chip Protein A (GE Life Sciences) using a flow rate of 10 μl/minute and a contact time of 60 seconds. Binding of recombinant human RNF43 and ZNRF3 extracellular domain to the captured antibodies was analyzed at 25° C. using a single cycle kinetics method with a flow rate of 30 μl/minute, a contact time of 180 seconds and a dissociation time of 600 seconds. The concentration of recombinant human RNF43 and ZNRF3 extracellular domain in the single cycle kinetics were 0, 0.8, 4, 20, and 100 nM. Between cycles, the chip was regenerated using 10 mM Glycine HCl pH 1.5 injected for 30 seconds at 30 μl/minute. Data were evaluated using Biacore 8K Evaluation software (GE Life Sciences). Kinetic constants were obtained using a 1:1 binding model with the parameter RI set to zero. Cell surface ligase antibodies with sub-nanomolar affinities may provide advantages in certain instances, for example, in the degradation efficiency which is correlated with the durability of the ternary complex as shown in FIG. 5D.

| Molecule | Kd [pM] | binding result |
| --- | --- | --- |
| ZNRF3-332 (antibody, V domains shown, Rabbit clone; VH/VL only) VH: QSLEESGGGLVQPEGSLTLTCTASGIDFSTRNYMCWVRQAPGKGLEWVGCIYTSSGGTYYASWVNGRFTISKTSSTTVTLRMTSLTAADTATYFCARGGYVGYGYATYFNLWGPGTLVAVSS VL: DVVMTQTPASVSEPVGGTVTIKCQASQSISSYLSWYQQKPGQPPKLLIYYVSNLESGVPSRFKGSGSGTEFTLTISDLECADAATYYCQNYYSSSSGWAFGGGTEVVVK | 1600 | – |
| ZNRF3-331 (antibody, V domains shown, Rabbit clone; VH/VL only) VH: QSVEESGGRLVTPGTPLTLTCTVSGFSLSSYAMGWVRQAPGKGLEWIGIIYAGDTTYYASWAKGRFTISETSTTVDLKITSPTTEDTATYFCARKSDDDSDSYLLWGPGTLVTVSS VL: AYDMTQTPASVEVAVGGTVTIKCQASQSISSYLNWYQQKRGQPPKLLIYDASTLASGVPSRFSGSGSGTEFTLTISGVQCDDAATYYCQQGWSSTNIDNIFGGGTEVVVK | 200 | – |
| ZNRF3-287 (antibody, V domains shown, Rat clone; VH/VL only) VH: EVQLVGSGGGLVQPGRSLKISCAASGFTFSYYGMAWVRQAPTRGLEWVATITYNGSKSYYRDSVKGRFTISREYAKSTLYLQMDDLTSEDTATYFCARRTTGMLFDYWGQGVLVTVSS VL: QAVLTQPNSVSMSLGSTVKLSCTLNSGNIENNFVHWYQQYEGRSPTTMIYNDDKRPDGVPDRFSGSIDSSSNSAFLTINNVEIGDEAIYFCHSFVSSIHIFGGGTKLTVL | 191 | – |
| ZNRF3-247 (antibody, V domains shown, Rat clone; VH/VL only) VH: EVQLVGSGEGLVQPGSSMKLSCVASGFTFSNSGMNWIRQAPKKGLEWIALIYYTNTYYADSVKGRFTISRDNSKNTLYLEMNSLRSEDTAMYYCAKRGLTGSVDYWGQGVMVTVSS VL: DIQMTQSPSFLSASVGDRVTINCKASQNINRYLNWYQQKLGEAPKRLIYDTSNLQTGIPSRFSGSGSGTDFTLTISSLQPEDFATYFCLQHDSFPNTFGTGTKLELK | 161 | – |
| ZNRF3-296 (antibody, V domains shown, Rat clone; VH/VL only) VH: EVQLVESGGGLVQPGKSLRLSCSASGFTFSNYGLHWIRQAPGKGLDWLGYSSSNSGTVYGDAVKGRVTISRDNAKNTLYLQLNSLKSEDTAIYYCARGYSSSPFAYWGQGTLVTVSS VL: DIVLTQSPALAVSLGQRVTISCKASQNVDGFGIGYMHWYQQKPGQKPKLLIFAGSNLASGIPARFSGSGSGTDFTLTIDPVETDDIATYYCQQNKDFPLTFGSGSRLEIT | 37.1 | – |
| ZNRF3-222 (antibody, V domains shown, Rat clone; VH/VL only) VH: EVQLVESGGGLVQPGRSLKLSCAVSGFTFSNYGMAWVRQTPTKGLEWVATITYDGSTTYYRDSVKGRFTISRDNAKSALSLQMDSLRSEDTATYHCARQGLGYPFVYWGQGTLVTVSS VL: DVVMTQTPVSLPVSLGGQASISCRTSQSLVHSNGNTYLHWYLQKPGQSPQLLIYRVSNRFSGVPDRFSGSGSGTDFTLKISRIEPEDLGDYYCLQSTHFPYTFGAGTKLELK | – | no binding |
| ZNRF3-255 (antibody, V domains shown, Rat clone; VH/VL only) VH: EVQLVESGGGLVQPGRSLKLSCAASGFTFSSFTMAWVRQAPKKGLEWVASISSGGGGTYYPDSVKGRFTISRDNAKSTLYLQMDSLRSEDTASYYCATGGFAYWGQGTLVIVSS VL: DIQMTQSPSSLPASLGDRVTITCRASQDIGSYLRWFQQKPGKSPRLMIYGATSLANGVPSRFSGSRSGSDYSLTINNLESEDMAIYYCLQHNEFPYTFGTGTKLELK | 260 | – |
| ZNRF3-253 (antibody, V domains shown, Rat clone; VH/VL only) VH: EVQLVESGGGLVQPERSMKLSCAASGFTFSNYGMAWVRQAPTKGLEWVATINSDGSGTYYRGSVKGRFTISRDNAKSTLYLQMNSLRSDDTATYYCTRGRMLRIISFFDYWGQGVMVTVSS VL: DIQMTQSPASLSASLGETVSIECLASEDIANDLAWYQQKSGKSPQVLIYAASRVQDGVPSRFSGSGSGTRYSLKITDMQPEDVADYFCQQSYGFPLTFGSGTKLEIK | 483 | – |
| ZNRF3-254 (antibody, V domains shown, Rat clone; VH/VL only) VH: EVQLVESGGGLVQPERSMKLSCAASGFTFNNYGMAWVRQTPTKGLEWVATINSDGSGTHYRGSVKGRFTISRDNAKGTLYLQMHNLRSDDTATYYCARGRILRIITYFDSWGQGVVVTVSS VL: DIQMTQSPASLSASLGESVSIECLASEDIANDLAWYQQKSGRSPQVLIHAASRVQDGVPSRFSGSGSGTRYSLKITDMQPEDVADYFCQQSYGFPLTFGSGTKLEIK | 104 | – |
| ZNRF3-300 (antibody, V domains shown, Rat clone; VH/VL only) VH: EVQLVESGGGLVQPERSMKLSCAASGFTFSNYGMAWVRQAPTKGLEWVATINSDGSGTYYRGSVKGRFTISRDNARNTLYLEMNSLRSDDTATYYCTRGRILRIITYFDYWGQGVMVTVSS VL: DIQMTQSPASLSASVGETVSIECLASEDIANDLAWYQQKSGKSPQVLIYAASRVQDGVPSRFSGSGSGTRYSLRISDMQPEDVADYFCQQSYSFPLTFGSGTKLEIK | 239 | – |
| ZNRF3-322 (antibody, V domains shown, Rat clone; VH/VL only) VH: EVHLVESGGGLVQPGRSLTLSCVASGFTFNNWWMTWIRQAPGKGLEWVASISHTGGSTSYPDSVKGRFTISRDNAKSTLYLQMTSLRSDDTATYYCTRWGPILRGFDYWGQGVMVTVSS VL: DVVLTQTPPTLSATIGQSVSISCRSSQSLLHINGNTYVNWLVQRPGQPPQLLFYLVSRLESGVPNRFSGSGSGTDFTLKISGVEAEDLGVYYCVQSTHAPPTFGGGTKLELK | – | no binding |
| ZNRF3-237 (antibody, V domains shown, Rat clone; VH/VL only) VH: QIQLVQSGPELKKPGESVKISCKASGYTFTDYAMHWVKQVPGKGLKWMGWINTYTGKPTYADDFKGRFVFSLEASASTVNLQISNLKNEDTANVFCARGGLLSRGWFAYWGQGTLVTVSS VL: DIVMTQTPVSLSVSLGGQVSISCRSSQSFVHSDGNSYLSWYLQKPGQSPQLLIYEVSNRLSGVPDRFSGSGSGTDFTLKISRVEHDDLGVYYCGQASKIPLTFGSGTKLEIK | 5300 | – |
| ZNRF3-223 (antibody, V domains shown, Rat clone; VH/VL only) VH: EVQLVESGGGLVQPGESLKLSCSASGFTFSNYGMHWIRQVPGKGLDWVAYITNSGGSLYAAAVKGRFTISRDNAKNTLYLELTSLKSEDTAIYHCARGYSYPGPYWGRGTLVTVSS VL: DIQVTQSPSSLLASLGERVTITCQTGQSINNYLNWYQQRPGQAPLLLIYFATSLQTGVPSRFSGQYSGRSFTLTITSLEPEDIANYFCLQHYSPPYTFGAGTKLELR | 44.3 | – |
| ZNRF3-244 (antibody, V domains shown, Rat clone; VH/VL only) VH: EVQLVESGGGLVQPGKSLKLSCSASGFTFSSYGMHWIRQTPGKGLDWVAYISTNSGTVYADAVKGRFTISRDNAKNTLYLQLNSLQSEDTAIYYCARGYNYPGAYWGQGTLVTVSS VL: DIQVTQSPSSLLASLGERVTITCQTSQSISNNLNWYQQKPGQAPMLLIYYATSLQTGMPSRFSGQYSGRSFTLTITSLEPEDIANYFCLQHYNPPYTFGAGTKLELK | 6850 | – |
| ZNRF3-329 (antibody, V domains shown, Rat clone; VH/VL only) VH: EVQLVESGGGLVQPGKSLKLSCSASGFTFSSHGMHWIRQAPGKGLDWVAYISNNSGTIYSAAVRGRFTISRDNSKNTLFLQLNSLKSEDTAIYYCARGYNYPGAYWGQGTLVTVSS VL: DIQVTQSPSSLLASLGERVTITCQTSQSIRNYLNWYQQKPGQVPILLIYYATSLQTDMPSRFSGQYSGRSFTLTITSLEPEDIANYFCLQHYSVPYTFGAGTKLELK | 283 | – |
| ZNRF3-270 (antibody, V domains shown, Rat clone; VH/VL only) VH: EVQLVESGGGLVQPGESLKLSCSASGFTFSNYGMHWIRQVPGKGLDWVAYITNSGGSLYAAAVKGRFTISRDNAKNTLYLELTSLKPEDTAIYHCARGYSYPGPYWGRGTLVTVSS VL: DIQVTQSPSSLLASLGERVTITCQTGQSINNYLNWYQQRPGQAPLLLIYFATSLQTGVPSRFSGQYSGRSFTLTITSLEPEDIANYFCLQHYSPPYTFGAGTKLELR | 42.4 | – |
| ZNRF3-231 (antibody, V domains shown, Rat clone; VH/VL only) VH: EVQLVESGGGLVQPGESLKLSCSASGFTFSNYGMHWIRQVPGKGLDWVAYISNSGGSLYADAVKGRFTISRDNAKNTLYLELNSLKSEDTAIYHCARGYSYPGPYWGQGTLVTVSS VL: DIQVTQSPSSLLASLGERVTITCQTGQSINNYLNWYQQRPGQAPLLLIYFATSLQTGVPSRFSGQYSGRSFTLTITSLEPEDIANYFCLQHYSPPYTFGAGTKLELR | 78.3 | – |

Target: RNF43
Assay: flow cytometry of live HT29 cells with stably integrated, doxycycline-induced gD-tagged ligase, stained with anti-gD antibody and APC; Parental HT29 APC-A+ 0.27

Sequence of RNF43 (transmembrane E3 ubiquitin ligase with N-terminal gD tag, as listed by the source limits assumed): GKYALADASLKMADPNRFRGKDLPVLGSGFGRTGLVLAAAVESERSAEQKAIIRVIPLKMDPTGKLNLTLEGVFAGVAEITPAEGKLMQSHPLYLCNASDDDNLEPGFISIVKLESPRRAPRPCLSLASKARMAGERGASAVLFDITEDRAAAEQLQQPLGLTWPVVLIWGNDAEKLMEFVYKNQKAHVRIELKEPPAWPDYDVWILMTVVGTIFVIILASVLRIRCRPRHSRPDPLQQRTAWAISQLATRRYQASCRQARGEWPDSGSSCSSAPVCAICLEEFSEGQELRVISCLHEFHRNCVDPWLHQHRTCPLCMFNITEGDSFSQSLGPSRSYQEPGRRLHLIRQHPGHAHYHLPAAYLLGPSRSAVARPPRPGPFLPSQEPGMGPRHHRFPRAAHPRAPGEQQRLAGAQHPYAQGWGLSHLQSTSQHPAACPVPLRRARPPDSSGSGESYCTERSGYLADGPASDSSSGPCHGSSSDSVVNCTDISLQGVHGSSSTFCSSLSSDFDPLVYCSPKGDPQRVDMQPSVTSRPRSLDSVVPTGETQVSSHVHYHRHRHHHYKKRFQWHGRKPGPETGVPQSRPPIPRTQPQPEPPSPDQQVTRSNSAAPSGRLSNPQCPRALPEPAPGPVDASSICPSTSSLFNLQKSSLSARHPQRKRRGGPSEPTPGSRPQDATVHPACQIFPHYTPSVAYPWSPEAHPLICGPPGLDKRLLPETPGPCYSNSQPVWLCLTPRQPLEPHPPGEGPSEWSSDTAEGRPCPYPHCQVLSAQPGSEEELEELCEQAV

| Molecule | APC-A+ (share of cells in the positive gate; percentage by paragraph 258) |
| --- | --- |
| anti-gD antibody | 63 |

Target: RNF13
Assay: as above

Sequence of RNF13 (transmembrane E3 ubiquitin ligase with N-terminal gD tag, as listed by the source limits assumed): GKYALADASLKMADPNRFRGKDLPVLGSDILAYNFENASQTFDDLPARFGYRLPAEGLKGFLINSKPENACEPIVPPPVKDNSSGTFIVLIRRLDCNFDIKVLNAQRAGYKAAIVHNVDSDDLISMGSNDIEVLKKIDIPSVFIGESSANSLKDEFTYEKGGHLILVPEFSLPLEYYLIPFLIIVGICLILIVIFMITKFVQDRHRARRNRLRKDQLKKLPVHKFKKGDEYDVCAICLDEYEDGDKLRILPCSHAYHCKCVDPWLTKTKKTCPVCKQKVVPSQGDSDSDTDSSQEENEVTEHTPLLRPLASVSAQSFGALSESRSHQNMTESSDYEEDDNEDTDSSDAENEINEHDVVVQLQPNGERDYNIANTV

| Molecule | APC-A+ (share of cells in the positive gate; percentage by paragraph 258) |
| --- | --- |
| anti-gD antibody | 0.79 |

Target: RNF128 (GRAIL)
Assay: as above

Sequence of RNF128 (GRAIL) (transmembrane E3 ubiquitin ligase with N-terminal gD tag, as listed by the source limits assumed): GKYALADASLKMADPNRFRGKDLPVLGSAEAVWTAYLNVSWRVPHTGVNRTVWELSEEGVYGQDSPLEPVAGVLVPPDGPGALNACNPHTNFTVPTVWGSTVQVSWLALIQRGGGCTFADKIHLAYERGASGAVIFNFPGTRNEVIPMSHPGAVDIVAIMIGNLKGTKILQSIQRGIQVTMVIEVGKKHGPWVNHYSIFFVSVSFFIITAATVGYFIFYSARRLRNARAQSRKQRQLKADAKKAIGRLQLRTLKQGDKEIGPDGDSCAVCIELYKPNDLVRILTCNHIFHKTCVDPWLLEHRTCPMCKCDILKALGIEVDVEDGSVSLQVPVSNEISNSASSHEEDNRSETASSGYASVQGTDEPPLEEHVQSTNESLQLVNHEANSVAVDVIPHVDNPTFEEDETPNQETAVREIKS

| Molecule | APC-A+ (share of cells in the positive gate; percentage by paragraph 258) |
| --- | --- |
| anti-gD antibody | 35 |
